Data as given in patent US20110257890A1 (IMMATICS BIOTECHNOLOGIES, published 2011).

Target: T1, recombinant HLA-A*2402 molecules lacking the transmembrane domain (human, biotinylated at the carboxy terminus of the heavy chain)
T1 construct: Loaded with the peptide in question; used on streptavidin beads (aAPC) and as PE- or APC-coupled multimers
Test: peptide-loaded recombinant HLA-A*2402 on beads for T-cell priming, read out with A*2402 multimers

B1: IQGAP3-001 (peptide)
peptide: VYKVVGNLL
- binding result: binds

B2: NFYB-001 (peptide)
peptide: VYTTSYQQI
- binding result: binds

B3: UQCRB-001 (peptide)
peptide: YYNAAGFNKL
- binding result: binds

B4: PLK4-001 (peptide)
peptide: QYASRFVQL
- binding result: binds

B5: NUF2-002 (peptide)
peptide: RFLSGIINF
- binding result: binds

B6: MET-006 (peptide)
peptide: SYIDVLPEF
- binding result: binds

B7: MUC6-001 (peptide)
peptide: NYEETFPHI
- binding result: binds

B8: SIAH2-001 (peptide)
peptide: VFDTAIAHLF
- binding result: binds

B9: ATAD2-001 (peptide)
peptide: AYAIIKEEL
- binding result: binds

B10: MST1R-001 (peptide)
peptide: NYLLYVSNF
- binding result: binds

B11: SMC4-001 (peptide)
peptide: HYKPTPLYF
- binding result: binds

B12: CDC2-001 (peptide)
peptide: LYQILQGIVF
notes: also called TUMAP encoded by CDK1
- binding result: binds

B13: NUF2-001 (peptide)
peptide: VYGIRLEHF
- binding result: binds

B14: ABL1-001 (peptide)
peptide: TYGNLLDYL
- binding result: binds

B15: HSP90B1-001 (peptide)
peptide: KYNDTFWKEF
- binding result: binds

B16: UCHL5-001 (peptide)
peptide: NYLPFIMEL
- binding result: binds

B17: ASPM-001 (peptide)
peptide: RYLWATVTI
- binding result: binds

B18: KIF2C-001 (peptide)
peptide: IYNGKLFDLL
- binding result: binds

B19: ERBB3-001 (peptide)
peptide: VYIEKNDKL
- binding result: binds

B20: MMP3-001 (peptide)
peptide: VFIFKGNQF
- binding result: binds

B21: AVL9-001 (peptide)
peptide: FYISPVNKL
- binding result: binds

B22: ASPM-002 (peptide)
peptide: SYNPLWLRI
- binding result: binds

B23: PPAP2C-001 (peptide)
peptide: AYLVYTDRL
- binding result: binds
